The source of these data is paper PMC4889239.

For this experiment, the target named is ataxia-telangiectasia mutated (ATM) kinase, full-length human (human) (UniProt Q13315). The experiment in a line: negative-stain single-particle electron microscopy. The conditions noted are these: remark: other sources report otherwise.

Regarding “ataxia-telangiectasia mutated (ATM) kinase, full-length human, Q13315 1-3056”, the percent of the particles that are dimers (% of the particles) amounted to 60.
